Substrate: N=C(N)NC(=N)N
Assay: purified protein
Assay type: biochemical, Pseudomonas sp. KHPS1
Conditions: 100 mM potassium phosphate, pH 8.0, 25 °C, 0.5 mM NADH, 0.5 mM 2-oxoglutarate, 1.5 U GDH

B1: BguH (Pseudomonas sp. KHPS1) (protein)
chain: MSERNHEKGMLLAIEQALKAVASGEPPFGVVILDAQGELVAATHDEVNTRGDMSAHAETLAVRAACQVRGPSLEGCFLYTTCEPCPMCFTTAWLARIGGVVYATTMDEVHKILGDAQRELRVPVTQMNDLSGEPVTLVKGVLRDRCLQLFREHAATLATTK
notes: N-terminal His6 tag (pET28b), E. coli codon-optimised synthetic gene, E. coli BL21(DE3)-RIPL host
For B1, the Km was 620 ± 160 µM and the kcat was 8.1 ± 0.8 s⁻¹.

Reference: publication PMC11647477, “Biochemical and genomic evidence for converging metabolic routes of metformin and biguanide breakdown in environmental Pseudomonads” (The Journal of Biological Chemistry, 2024)
